Experimental data reported in patent publication US10393755B2, “Compositions and methods for treating eye infections and disease” (UNIVERSITY OF VIRGINIA PATENT FOUNDATION, priority 2014, dated 2019).

Legend:
HCE-T cells = assay: FOXO3 translocation assay in IFNG/TNF stressed HCE-T cells; format: cell-based, human; settings: dry eye tears 1:100, 10 nM, 15 min
Description: For FOXO3 translocation assays, HCE-T cells were grown in triplicate to subconfluence (˜50%) on coverslips in α-MEM (5.54 mm glucose), sensitized overnight in IFNG (100 units/ml; Roche Applied Science), and treated for 15 min with normal or dry eye tears diluted 1:100 in α-MEM together with TNF (50 ng/ml; PeproTech, Rocky Hill, N.J.) without or with 10 nm lacritin or C-25. Cells were washed, fixed with 4% paraformaldehyde, and immunostained for FOXO3 (1:200; Millipore, Billerica, Mass.) followed by goat anti-rabbit secondary antibody and visualization on a Zeiss LSM 700 microscope.

[1] = system: primary human corneal epithelial cells; assay: FOXO3 translocation in INFG/TNF stressed primary human corneal epithelial cells; format: cell-based
Aire(−/−) dry eye mice = assay: Topical treatment of Aire(-/-) dry eye mice; format: in vivo, mouse
Description: Autoimmune regulator (Aire)-deficient [Aire^−/−] mice spontaneously develop dry eye without need for dry chambers or scopolamine Aire^−/− mice were dosed three times daily for three weeks with 10 μl of 50 μg/mllacritin, or in controls with PBS. Several different assays monitored the consequences. […] Topical lacritin reduced CD4+T cell infiltration into lacrimal glands measured as the number of lymphocytic foci/per millimeter square area of lacrimal gland tissue (3.68±0.65 per mm sq lacritin vs. 9.7+1.5 per mm sq PBS; P=0.01), but had no apparent effect on the pattern or distribution of CD4+T cells into either the corneal stroma (14.6±1.6 lacritin vs 12.4±2.1 PBS) or the limbus (29.6±2.5 lacritin vs 34.6±2.9 PBS.
To assess ocular surface mucosal damage from dry eye, eyes of Aire(−/−) dry eye mice were topically administered lissamine green that increasingly stained PBS-treated eyes with time (See FIG. 4C). […] Thus, topical lacritin, and its bioactive fragments thereof, diminished lacrimal gland inflammation and corneal staining in dry eye, and promoted ocular surface differentiation. Importantly, suppression of inflammation and promotion of tearing was achieved without direct contact with inflammatory cells nor with tear producing cells.

corneal sensory nerves = assay: Corneal sensory nerve activity monitored at the trigeminal ganglion; format: in vivo, rat
From the text: Topical lacritin stimulates tearing even without physical access to lacrimal acinar cells. The rapidity of the response is in keeping with corneal sensory nerve activation. Individual corneal sensory nerve activity was monitored at the level of the trigeminal ganglion in rats via previously described methods. Emerging from these studies was the observation that topical lacritin is neural stimulatory. […] The ‘dry response’ refers to neural activation as a consequence of drying of the cornea, which is thought to be a critical TRPM8-mediated stimulus for tearing, while the ‘wet response’ occurs when the agonist is present at the corneal nerve terminals. […] Apparent inhibition of the action potentials by lacritin during wet cornea was small because the TRPM8 activity during wet cornea is low to begin with, while it reaches optimal level during dry cornea when dynamic cooling of the ocular surface is taking place. Lacritin may also increase TRPM8 neural density.

[2] = format: in vitro ADME, human
Description: A limitation of most synthetic peptide drugs is their protease sensitivity. […] Retropepsin would inactivate LACRIPEP, while cathepsin K would have no effect. However neither protease is found in normal human tears. Nonetheless, tears are rich in other proteases. We therefore incubated LACRIPEP in normal human tears at 37° C. for 2, 4, 6 and 16 hr. For immunoblotting, we first removed all endogenous lacritin by immunodepletion. […] (FIG. 6B).

E. coli = assay: Lacritin inhibition (colony count) assay, E. coli; format: cell-based; settings: 2 uM, mid-log E. coli
Description: (§1) Bacterial Growth, SYTOX Green Assays, and on Column Cleavage—E. coli (ATCC (Manassas Va.) catalog no. 10536), S. epidermidis (ATCC catalog no. 12228), and P. aeruginosa (ATCC catalog no. 9027) were grown to mid-log phase in 50 ml of Luria-Bertani (LB) medium and washed three times in phosphate buffer containing 10 mM NaCl (pH 7.2; PB—NaCl) with centrifugation. Pellets were resuspended in 1 ml of PB—NaCl.
(§2) For lacritin inhibition assays, 50 ul of bacterial pellets each diluted 1:100 in PB—NaCl were incubated for 1.5 h (37° C.) with 100 ul of lacritin, lacritin truncations, or synthetic peptides at a final concentration of 0.1-6 uM. Mixtures were diluted 1:10 in PB—NaCl before plating 100 ul in quadruplicate on LB agar plates for overnight growth at 37° C. Colonies were manually counted. In other experiments, mid-log E. coli was treated at 37° C. for 0, 1, 2, or 3 h with 2 uM lacritin or lacritin truncations or with ampicillin (5 uM) or tetracycline (2 uM). After each treatment, 100 ul was centrifuged, resuspended in 1 ml of PB—NaCl, and plated (100 ul) onto LB agar for overnight growth (37° C.) and colony counting.

P. aeruginosa = assay: Lacritin inhibition (colony count) assay, P. aeruginosa; format: cell-based; settings: 2 uM, mid-log P. aeruginosa
Description: as §1, §2

S. epidermidis = assay: Lacritin inhibition (colony count) assay, S. epidermidis; format: cell-based; settings: 2 uM, mid-log S. epidermidis
Description: as §1, §2

bacteria = assay: Lacritin inhibition (colony count) assay, bacterium not given; format: cell-based; settings: whole protein
Description: as §1, §2

basal tearing = settings: Sumadre et al. 2011, cited from earlier work

B1: lacritin: 12.3 kDa secreted tear glycoprotein; recombinant, generated in Escherichia coli (protein, listed as Homo sapiens)
chain: MKFTTLLFLAAVAGALVYAEDASSDSTGADPAQEAGTSKPNEEISGPAEPASPPETTTTAQETSAAAVQGTAKVTSSRQELNPLKSIVEKSILLTEQALAKAGKGMHGGVPGGKQFIENGSEFAQKLLKKFSLLKPWA
- FOXO3 translocation to the cytoplasm by dry eye tears spiked with the substance (HCE-T cells): translocated FOXO3 to the cytoplasm
- FOXO3 translocation [1]: translocated FOXO3
- Keratin 10 levels (skin epidermal marker) (Aire(−/−) dry eye mice): diminished levels
- Keratin 12 expression (corneal marker) (Aire(−/−) dry eye mice): 80.1±4.8%
- Lissamine green staining (Aire(−/−) dry eye mice): −0.417±0.06
- Lymphocytic foci per millimeter square area of lacrimal gland tissue (CD4+T cell infiltration) (Aire(−/−) dry eye mice; three times daily for three weeks, 10 μl of 50 μg/ml): 3.68±0.65 per mm sq
- CD4+T cells in corneal stroma (Aire(−/−) dry eye mice; three weeks): 14.6±1.6
- CD4+T cells in limbus (Aire(−/−) dry eye mice; three weeks): 29.6±2.5
- Corneal neuron activity immediately after application (corneal sensory nerves; 10 μM, from ˜12 before): ~8 spikes/s
- Wet response after 1 hr and washout (corneal sensory nerves; 10 μM, from ˜12 before): ~16 spikes/s
- Dry response after 1 hr and washout (corneal sensory nerves; 10 μM, from ˜20 before): ~23 spikes/s
- Neural dry response (corneal sensory nerves; topical): enhanced
- Cross-linking of monomer spiked into immunodepleted tears [2]: formed dimers, trimers and tetramers
- Appearance of colonies (E. coli): no effect on the appearance of colonies
- Appearance of colonies (P. aeruginosa): no effect on the appearance of colonies
- Appearance of colonies (S. epidermidis): no effect on the appearance of colonies
- Bactericidal activity (bacteria): does not have bactericidal activity
- Tolerability of multiple doses per day (basal tearing): well tolerated
- Increase of basal tearing over vehicle (basal tearing; acute): 30%
